Experimental data reported in US20060030524A1, “Treatment of systemic lupus erythematosus by down-regulating the autoimmune response to autoantigens” (Yeda Research and Development Co. Ltd., priority 1998, published 2006).

B1: p53: recombinant mouse p53 protein expressed in E. coli (protein, UniProt P02340 1-390, looked up)
Cellular tumor antigen p53: MTAMEESQSDISLELPLSQETFSGLWKLLPPEDILPSPHCMDDLLLPQDVEEFFEGPSEALRVSGAPAAQDPVTETPGPVAPAPATPWPLSSFVPSQKTYQGNYGFHLGFLQSGTAKSVMCTYSPPLNKLFCQLAKTCPVQLWVSATPPAGSRVRAMAIYKKSQHMTEVVRRCPHHERCSDGDGLAPPQHLIRVEGNLYPEYLEDRQTFRHSVVVPYEPPEAGSEYTTIHYKYMCNSSCMGGMNRRPILTIITLEDSSGNLLGRDSFEVRVCACPGRDRRTEEENFRKKEVLCPELPPGSAKRALPTCTSASPPQKKKPLDGEYFTLKIRGRKRFEMFRELNEALELKDAHATEESGDSRAHSSYLKTKKGQSTSRHKKTMVKKVGPDSD
B2: IDI-2: Ab2 monoclonal antibody anti-idiotypic to PAb-421 that binds DNA; VH and VL SEQ ID NOs:6 and 7 (antibody, listed as Mus sp., V domains shown)
VH: QVQLQQSGPELVKPGASMKISCKASGYSFTGYTINWVKQSHGKNLEWIGLINPYNGGTCYNPKFKGKATLTVDKSSSTAYMELLSLTSEDSAVYYCARRVWLRRDGFYYAMDYWGQGTSVTVSSAKTTPP
VL: AVSLGQRATISCQASESVSFAGTSLMHWYQQKPGQPPKLLIYRASKLESGVPARFSGSGSESDFTLTIDPVEEDDAAMYYCMQSMEDPYTFGGGTKLEIKRADAAPTVSIFPPS
modifications: BINDING (26)..(35) Complementary Determining Region; BINDING (13)..(27) Complementary Determining Region
B3: IDI-1: Ab2 monoclonal antibody anti-idiotypic to PAb-421 that binds DNA; VH and VL SEQ ID NOs:4 and 5 (antibody, listed as Mus sp., V domains shown)
VH: IPQVQLQQSGAELVRPGASVKLSCKASGYIFTSYWINWVRQRPGQGLEWIGNISPADSSTNYNQKFKDKATLTVDKSSTTAYMQLSRPTFEDSAVYYCAREEVRRRRDMDFWGQGTSVTVSSAKTTPPC
VL: RKLDIVITQDELSNPVTSGESVSISCRSRQSLLYKNGKTYLNWFLQRPGQSPQLLIYLMSIRASGVSDRFSGNGSGTDFTLEISRVRAEDVGVYYCQQLVEYPYTFGGGTKLEIKRADAAPT
modifications: BINDING (28)..(37) Complementary Determining Region; BINDING (27)..(42) Complementary Determining Region

What was measured:
[1] = test system: MRL/MpJ-Fas^lpr mice; experiment: Prevention of spontaneous SLE in MRL/MpJ-Fas^lpr mice; format: in vivo; conditions: for heavy proteinuria, ^33 g/l (+++) at week 17 of age, mice affected/treated: peptides 100 μg i.p. in PBS at weeks 12, 18, 24, TCV 2×10^7 cells i.p. at 12 weeks; for death by week 33 of age, percent of mice / heavy proteinuria, ^33 g/l (+++) at week 17 of age, percent of mice: same treatments
Excerpt: Proteinuria was detected with Albustix strips (Bayer, Slough, UK). Leukocytes were counted from heparinized blood following 10-fold dilution in 1% acetic acid.
Thus, modulation of the p53 immune network should affect the course of SLE. A preliminary experiment was designed to see whether the spontaneous SLE development in MRL/MpJ-Fas^lpr mice might be influenced by administering to these mice peptides involved in the p53 network: the CDR peptides of the light and the heavy chain of PAb-421 depicted in FIG. 10 (administered as a mixture), or peptide 364-383 (residues 364-383 of SEQ ID NO:1) of the carboxy terminal domain of p53. The mice were intraperitoneally injected with 100 μg of the p53 peptide epitope of PAb-421 in PBS, or with 100 μg of peptides derived from variable region of PAb-421 in PBS at weeks 12,18, and 24 of age and followed for the development of SLE symptoms. […] Treatment with the peptides derived from the variable region of PAb-421 protected all five mice from development of proteinuria (0%; Table 2: 421: CDR). At week 33 of age, 5 of 6 non-treated mice (83%, cf. Table 2) were dead, whereas none of the mice treated with either peptide had died (0% each; see Table 2).
Also carried out was T cell vaccination against immunity to PAb-421. MRL/MpJ mice were immunized intradermally with 30 μg PAb-421 in complete Freund's adjuvant, followed by a boost in incomplete Freund's adjuvant. Cells derived from the draining lymph nodes, which were enriched for T cells reactive to PAb-421 and the p53 epitope peptide of PAb-421, were activated with 2 μg per ml Concanavalin A. Twelve week old MRL/MpJ-Fas^lpr mice were then injected intraperitoneally with 2×10^7 freshly activated and gamma-irradiated (2500 rad) cells per mouse. At 17 weeks of age, only 1 out of 8 treated mice […] developed severe proteinuria, while, in contrast, 6 out of 8 untreated control mice (75%) developed severe proteinuria. 421-TCV vs. not treated.

[2] = test system: single-stranded homooligomers (20-mers) of dG, dA, dC and dT; experiment: Band-shift assay with single-stranded homooligomers; format: binding; conditions: preliminary studies
Excerpt: Preliminary studies were done to define the oligonucleotide motifs recognized by IDI-1 and IDI-2 and to test whether p53 itself might bind the same oligonucleotide. Single-stranded homooligomers (20-mers) of dG, dA, dC and dT were used. […] Thus, dG is an important ligand for the anti-DNA monoclonal antibodies and for p53 itself. This further supports the presumptions that IDI-1 and IDI-2 mimic the carboxy terminal conformation of p53. In fact, the binding of the antibody to oligo dG is evidence that the antibody actually mimics the C-terminal domain of p53.

[3] = test system: PAb-421; experiment: Reactivity of monoclonal antibodies IDI-1 and IDI-2 to PAb-421; format: binding, mouse
Description: (§1) FIG. 7 is a graph showing the reactivities of monoclonal antibodies IDI-1 and IDI-2, which were selected for idiotypic binding to PAb-421. […] The binding to single-stranded or double-stranded calf thymus DNA was assessed by ELISA after the DNA had been gamma-irradiated with the indicated dosages (0-10,000 rad).
To generate such antibodies, BALB/c mice were immunized with PAb-421 and selected hybridomas producing anti-idiotypic antibodies that bound PAb-421 and could also bind DNA were isolated.
(§2) Two monoclonal antibodies, IDI-1 and IDI-2, could be isolated which had been selected for idiotypic binding to PAb-421 and their reactivities were determined. […] Thus, these two novel monoclonal antibodies of the present invention appear to mimic the DNA-binding specificity of p53. Thus, such antibodies could serve as models of the critical regulatory conformation of the carboxy-terminal domain of p53.

[4] = test system: mouse antibodies other than PAb-421, like R73; experiment: Reactivity of IDI-1 and IDI-2 to control mouse antibodies; format: binding; conditions: control mAb
Description: as §1, §2

[5] = test system: single-stranded or double-stranded calf thymus DNA; experiment: ELISA binding of IDI-1 and IDI-2 to calf thymus DNA, with or without gamma-irradiation; conditions: for change of binding to single-stranded DNA after gamma-irradiation of the DNA: 0-10,000 rad, depending on the radiation dose; for reactivity to DNA (FIG. 7): single-stranded or double-stranded DNA
Description: as §1
For anti-DNA ELISA, a secondary antibody conjugated to horseradish peroxidase, and as substrate 1 mg/ml ABTS in 0.2 M citric acid, 0.2 M Na2HP04, and 3% H202 (all from Sigma) was used. The test antigens used were (Fab) 2 fragments of Ab2 anti-PAb-421, which were prepared as described (Harlow et al, 1988), recombinant p53, the p53 peptide epitope of PAb-421, histones or, after pre-coating with methylated BSA, calf thymus DNA (all from Sigma). All antibody titers are shown as the O. D. produced by the test sera at a dilution of 1:100. Dots represent individual sera, bars represent the median of each group.
as §2

Molecule | death by week 33 of age, mice dead/treated ([1]; peptides 100 μg i.p. in PBS at weeks 12, 18, 24) | heavy proteinuria, ^33 g/l (+++) at week 17 of age, mice affected/treated [1] | heavy proteinuria, ^33 g/l (+++) at week 17 of age, mice affected/treated ([1]; listed as 421-epitope) | death by week 33 of age, percent of mice [1] | heavy proteinuria, ^33 g/l (+++) at week 17 of age, percent of mice [1] | death by week 33 of age, percent of mice ([1]; listed as 421-epitope) | heavy proteinuria, ^33 g/l (+++) at week 17 of age, percent of mice ([1]; listed as 421-epitope) | binding to homooligomers in band-shift assay [2] | reactivity to PAb-421 (FIG. 7) [3] | reactivity to mouse antibodies other than PAb-421 [4] | change of binding to single-stranded DNA after gamma-irradiation of the DNA [5] | reactivity to DNA (FIG. 7) [5]
421-Epitope: p53 peptide SYLKTKKGQSTSRHKKTMVK, residues 364-383 of SEQ ID NO:1, carboxy terminal domain of p53 (listed as Mus sp.) | 0/6 | 2/5 | 2 out of 5 | (0%) | (33%) | 0% | 40% |  |  |  |  | 
B1 |  |  |  |  |  |  |  | bound to the dG oligomer better than they did the others |  |  |  | 
B2 |  |  |  |  |  |  |  | bound to the dG oligomer better than they did the others | specific reactivity | No reactivity | somewhat less | specific reactivity
B3 |  |  |  |  |  |  |  | bound to the dG oligomer better than they did the others | specific reactivity | No reactivity | markedly enhanced | specific reactivity
